Assay results reported in paper PMC7416571 (Journal of molecular biology, 2019).

Columns and labels:
Assay in all cases: AUC
[1] = molecular target: T1, phage λ terminase large subunit TerL^λ, wild type (phage λ, UniProt P03708 1-641)
T1 sequence (looked up): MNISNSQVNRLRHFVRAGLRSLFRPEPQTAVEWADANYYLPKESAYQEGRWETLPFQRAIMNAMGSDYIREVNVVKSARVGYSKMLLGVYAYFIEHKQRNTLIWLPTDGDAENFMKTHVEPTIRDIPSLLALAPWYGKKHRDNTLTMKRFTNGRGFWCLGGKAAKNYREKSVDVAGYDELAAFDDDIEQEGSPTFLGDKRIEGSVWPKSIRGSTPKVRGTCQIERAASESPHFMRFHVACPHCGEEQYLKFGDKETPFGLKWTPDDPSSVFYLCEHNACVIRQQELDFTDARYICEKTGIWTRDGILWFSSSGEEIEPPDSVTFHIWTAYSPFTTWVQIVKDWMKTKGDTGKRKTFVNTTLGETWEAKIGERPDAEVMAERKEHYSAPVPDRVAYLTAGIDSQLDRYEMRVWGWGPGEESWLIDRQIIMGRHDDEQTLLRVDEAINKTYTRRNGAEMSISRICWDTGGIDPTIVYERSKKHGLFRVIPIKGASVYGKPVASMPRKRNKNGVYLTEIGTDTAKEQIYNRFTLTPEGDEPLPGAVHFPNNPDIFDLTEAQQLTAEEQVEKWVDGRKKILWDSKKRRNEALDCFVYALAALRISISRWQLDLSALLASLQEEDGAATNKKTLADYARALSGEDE

[2] = molecular target: T2, phage λ terminase large subunit TerL^λ-D178N (phage λ, UniProt P03708 1-641, D178N)
T2 sequence (looked up): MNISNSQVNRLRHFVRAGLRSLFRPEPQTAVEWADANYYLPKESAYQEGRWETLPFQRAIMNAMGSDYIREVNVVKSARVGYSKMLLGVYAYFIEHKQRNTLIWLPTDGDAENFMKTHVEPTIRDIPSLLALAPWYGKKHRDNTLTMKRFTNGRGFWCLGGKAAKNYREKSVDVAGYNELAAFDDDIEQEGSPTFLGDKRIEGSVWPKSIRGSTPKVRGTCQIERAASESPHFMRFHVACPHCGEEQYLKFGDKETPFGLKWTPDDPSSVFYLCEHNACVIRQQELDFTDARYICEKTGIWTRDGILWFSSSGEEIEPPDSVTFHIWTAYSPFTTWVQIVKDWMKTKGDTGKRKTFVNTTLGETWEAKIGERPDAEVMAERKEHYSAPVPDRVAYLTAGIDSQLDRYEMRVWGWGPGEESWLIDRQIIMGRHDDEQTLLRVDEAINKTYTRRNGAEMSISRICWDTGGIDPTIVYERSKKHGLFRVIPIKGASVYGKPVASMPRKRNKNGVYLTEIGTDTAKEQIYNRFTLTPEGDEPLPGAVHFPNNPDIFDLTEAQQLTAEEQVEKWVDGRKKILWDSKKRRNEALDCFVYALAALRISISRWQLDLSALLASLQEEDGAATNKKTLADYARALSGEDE

AUC = molecular target: the molecule itself

Measured: binding result

B1: phage λ terminase small subunit TerS^λ (natural protein, UniProt P03707 1-181, looked up)
chain: MEVNKKQLADIFGASIRTIQNWQEQGMPVLRGGGKGNEVLYDSAAVIKWYAERDAEIENEKLRREVEELRQASEADLQPGTIEYERHRLTRAQADAQELKNARDSAEVVETAFCTFVLSRIAGEIASILDGLPLSVQRRFPELENRHVDFLKRDIIKAMNKAAALDELIPGLLSEYIEQSG
binds: all assays above
